± gives the standard deviation of the averaged measurements.
Tested on: ATP
Assay: switch fluorescence ratio, 500 uM ATP over buffer (Cy3 cluster intensity, sum of 5 cycles each) (fold (ratio)); higher = stronger signal-on switching upon ATP binding; sequences stand for … in TCGTCGGCAGCGTCAGATGTGTATAAGAGACAGTTTTTTTTTTTTTTTTTTTTTTTTT…TC
Settings: aptamer strand: ATP DNA aptamer (quencher-CACCTGGGGGAGTATTGCGGAGGAAGG + anchor), 100 nM annealed; ATP concentration: 500 uM
Procedure, shortened: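 Five buffer/ATP imaging cycles were run on Cy3-labelled switching-strand clusters on a modified Illumina MiSeq flow-cell, with NaOH stripping and re-annealing between cycles. In each cycle, clusters annealed to 100 nM quencher-labelled ATP aptamer were imaged in selection buffer, then after 15 min with 500 uM ATP at 22 °C. Per cluster, the fluorescence ratio is summed target-cycle over summed buffer-cycle Cy3 intensity, averaged per switch-domain sequence. Only clusters within 100-1000 RFU were kept.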
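Further: ATP exposure 15 min at 22 °C before imaging.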

Row | Sequence | switch fluorescence ratio
1 | CTGGGGGGTC | 1.24 ± 0.41
2 | CTGGGGTTGT | 1.02 ± 0.012
3 | CTGGGTAGAC | 1.08 ± 0.011
4 | CTGGGTGTTC | 1.05 ± 0.035
5 | CTGGGTTTGG | 1 ± 0.025
6 | CTGGTAAAGA | 0.984 ± 0.015
7 | CTGGTAATTT | 1.02 ± 0.079
8 | CTGGTATACG | 1.06 ± 0.055
9 | CTGGTATAGG | 0.977 ± 0.028
10 | CTGGTATATC | 1.063 ± 0.0067
11 | CTGGTATGCG | 0.969 ± 0.054
12 | CTGGTCATTT | 0.997 ± 0.069
13 | CTGGTCCGGT | 0.994 ± 0.018
14 | CTGGTGCGCG | 0.98 ± 0.032
15 | CTGGTGGAGC | 0.954 ± 0.021
16 | CTGGTGGGGG | 0.9702 ± 0.0027
17 | CTGGTGTATT | 1.017 ± 0.0046
18 | CTGGTTACGC | 1.003 ± 0.0057
19 | CTGGTTACGG | 1.01 ± 0.015
20 | CTGGTTCACC | 0.99 ± 0.013
21 | CTGGTTCAGA | 0.994 ± 0.013
22 | CTGGTTGATT | 0.997 ± 0.04
23 | CTGGTTGGGA | 0.992 ± 0.013

Row | Sequence | switch fluorescence ratio
24 | CTGTAAAGAG | 0.99 ± 0.035
25 | CTGTAGGGGC | 1.09 ± 0.062
26 | CTGTATAACG | 0.998 ± 0.031
27 | CTGTATGATC | 1 ± 0.024
28 | CTGTATTTGG | 1 ± 0.012
29 | CTGTATTTGT | 1.03 ± 0.019
30 | CTGTCCGTTG | 1.01 ± 0.017
31 | CTGTCGAGGC | 0.977 ± 0.053
32 | CTGTCGGGTT | 1.03 ± 0.04
33 | CTGTCTGGCT | 1.02 ± 0.016
34 | CTGTGCAACT | 1.0489 ± 0.00058
35 | CTGTGGATGC | 1.089 ± 0.0038
36 | CTGTGGCAGG | 1.021 ± 0.0041
37 | CTGTGGGCCG | 1 ± 0.02
38 | CTGTGGGCGC | 1.01 ± 0.027
39 | CTGTGGGGAT | 0.961 ± 0.014
40 | CTGTGTAGCT | 1.02 ± 0.024
41 | CTGTGTGCAG | 1.01 ± 0.034
42 | CTGTTATTTT | 0.974 ± 0.03
43 | CTGTTCTGGG | 1.003 ± 0.0063
44 | CTGTTGGGAA | 1.04 ± 0.091
45 | CTGTTGTTTG | 0.9784 ± 0.0016
46 | CTGTTTAATG | 0.9871 ± 0.0038

Row | Sequence | switch fluorescence ratio
47 | CTGTTTCGAC | 1.02 ± 0.051
48 | CTGTTTCGGG | 0.978 ± 0.029
49 | CTGTTTGAGA | 1.02 ± 0.018
50 | CTGTTTGCCT | 0.983 ± 0.021
51 | CTGTTTGGGT | 0.9759 ± 0.0026
52 | CTGTTTTGTG | 1.01 ± 0.049
53 | CTGTTTTTGA | 0.96 ± 0.061
54 | CTTAAAAGTA | 0.972 ± 0.018
55 | CTTAAAATGC | 1.66 ± 0.46
56 | CTTAATGGGG | 0.973 ± 0.024
57 | CTTACCTGAG | 1.31 ± 0.045
58 | CTTAGAAGAT | 0.983 ± 0.044
59 | CTTAGCCTCA | 0.981 ± 0.034
60 | CTTAGCCTTT | 0.983 ± 0.016
61 | CTTAGGGAGA | 1 ± 0.035
62 | CTTAGGGGGA | 1 ± 0.012
63 | CTTAGGTTTG | 1 ± 0.018
64 | CTTAGTGAAA | 0.988 ± 0.029
65 | CTTATAGCTT | 0.987 ± 0.033
66 | CTTATCATGT | 0.981 ± 0.034
67 | CTTATCGGCA | 1.0825 ± 0.00095
68 | CTTATCTCTG | 1.05 ± 0.019
69 | CTTATTATGG | 0.975 ± 0.021

Row | Sequence | switch fluorescence ratio
70 | CTTCAAAGTA | 1.03 ± 0.026
71 | CTTCATTACT | 1.08 ± 0.017
72 | CTTCCACGGT | 1.21 ± 0.12
73 | CTTCCGCTTG | 1.58 ± 0.021
74 | CTTCGGACCG | 1.03 ± 0.096
75 | CTTCGGAGGT | 1.028 ± 0.0037
76 | CTTCGGTGTT | 0.9967 ± 0.0085
77 | CTTCGTGACA | 1.042 ± 0.0027
78 | CTTCGTGATG | 1.1044 ± 0.00079
79 | CTTCTGAGGT | 1.74 ± 0.95
80 | CTTCTGTGGC | 1.071 ± 0.0073
81 | CTTCTTGTGG | 0.9925 ± 0.009
82 | CTTCTTGTTT | 1.008 ± 0.0037
83 | CTTCTTTGTG | 0.996 ± 0.018
84 | CTTGAAGTTA | 1 ± 0.011
85 | CTTGAATGTC | 1.05 ± 0.054
86 | CTTGAATGTG | 1 ± 0.013
87 | CTTGACAGAG | 0.9835 ± 0.0074
88 | CTTGAGTGTT | 0.996 ± 0.011
89 | CTTGATAACG | 1.024 ± 0.0033
90 | CTTGATGTAA | 1 ± 0.064
91 | CTTGATTAGG | 0.9981 ± 0.0037
92 | CTTGATTTTT | 1 ± 0.016

Row | Sequence | switch fluorescence ratio
93 | CTTGCATGGC | 1.077 ± 0.0092
94 | CTTGCGGGGC | 1.03 ± 0.051
95 | CTTGCGTGTC | 1.03 ± 0.038
96 | CTTGCTTGAG | 1.003 ± 0.0007
97 | CTTGGAGGGT | 1.04 ± 0.086
98 | CTTGGAGTGG | 0.978 ± 0.024
99 | CTTGGCAGGG | 0.99 ± 0.02
100 | CTTGGGATTT | 0.98 ± 0.013
101 | CTTGGGGATT | 0.99 ± 0.044
102 | CTTGGGGCAT | 1.025 ± 0.008
103 | CTTGGGGGCT | 1.002 ± 0.0097
104 | CTTGGTTACG | 0.9738 ± 0.0093
105 | CTTGGTTCGA | 0.978 ± 0.026
106 | CTTGGTTTCT | 1.032 ± 0.0093
107 | CTTGTATTAC | 1.16 ± 0.024
108 | CTTGTCATCG | 0.993 ± 0.037
109 | CTTGTGGCTA | 0.956 ± 0.046
110 | CTTGTGTTCT | 0.9964 ± 0.004
111 | CTTGTTCTTA | 0.996 ± 0.024
112 | CTTTAAGTTT | 0.9967 ± 0.0093
113 | CTTTATAATC | 0.986 ± 0.026
114 | CTTTATGGGG | 0.974 ± 0.029
115 | CTTTATTGGA | 0.971 ± 0.013

Row | Sequence | switch fluorescence ratio
116 | CTTTCAAGGT | 1.006 ± 0.0032
117 | CTTTCCCTTT | 1.01 ± 0.03
118 | CTTTCGGGCT | 1.01 ± 0.026
119 | CTTTCTCAA | 1.32 ± 0.44
120 | CTTTGAAGGA | 0.992 ± 0.03
121 | CTTTGATTGG | 0.99 ± 0.04
122 | CTTTGATTTT | 1.01 ± 0.019
123 | CTTTGCATTA | 1.7035 ± 0.00023
124 | CTTTGCCTGG | 0.98 ± 0.026
125 | CTTTGGAGGT | 0.985 ± 0.016
126 | CTTTGGCTTT | 0.967 ± 0.014
127 | CTTTGGGGCT | 0.999 ± 0.038
128 | CTTTGGGTGG | 1.03 ± 0.058
129 | CTTTGTAGT | 1.013 ± 0.01
130 | CTTTGTATGG | 1 ± 0.017
131 | CTTTGTATGT | 0.982 ± 0.029
132 | CTTTGTCTGA | 1.022 ± 0.0085
133 | CTTTGTTACG | 1.048 ± 0.0015
134 | CTTTTACCAA | 0.992 ± 0.046
135 | CTTTTAGAGA | 1.02 ± 0.015
136 | CTTTTAGGGA | 0.989 ± 0.028
137 | CTTTTAGGTG | 1.11 ± 0.12
138 | CTTTTAGTGG | 0.9714 ± 0.0059

Row | Sequence | switch fluorescence ratio
139 | CTTTTAGTTT | 0.9963 ± 0.0034
140 | CTTTTCTTAA | 0.996 ± 0.0011
141 | CTTTTGGATT | 0.998 ± 0.022
142 | CTTTTTAGGC | 1 ± 0.043
143 | CTTTTTCTTT | 1.01 ± 0.057
144 | CTTTTTGCAT | 1.02 ± 0.013
145 | CTTTTTGTGT | 0.987 ± 0.019
146 | CTTTTTTTTT | 1.02 ± 0.063
147 | GAAAAAAAGC | 1.01 ± 0.053
148 | GAAAAAAGCG | 1.01 ± 0.041
149 | GAAAAACCTT | 3.83 ± 1.6
150 | GAAAAAGGTG | 1.1 ± 0.028
151 | GAAAAAGGTT | 0.969 ± 0.011
152 | GAAAAAGTCA | 1.01 ± 0.023
153 | GAAAAGAGGC | 1.1 ± 0.039
154 | GAAAAGATTA | 0.997 ± 0.028
155 | GAAAAGGGT | 1.08 ± 0.065
156 | GAAAAGGTAA | 1.025 ± 0.0033
157 | GAAAATCAGC | 0.976 ± 0.071

— the supplement of paper PMC10126150
